# Data published in paper PMC11066842, “Formation of Calprotectin Inhibits Amyloid Aggregation of S100A8 and S100A9 Proteins” (ACS Chemical Neuroscience, 2024).
# B1: S100A8 (calgranulin A) (natural protein)
# chain: MLTELEKALNSIIDVYHKYSLIKGNFHAVYRDDLKKLLETECPQYIRKKGADVWFKELDINTDGAVNFQEFLILVIKMGVAAHKKSHEESHKE
# notes: S100A8 (calgranulin A); construct His6-SUMO-S100A8 in pET28a, tag removed by SENP1; also called S100A8 subunit of calprotectin (CP); source: E. coli BL21(DE3), purified (Ni2+ Sepharose, SENP1 cleavage of His6-SUMO, second Ni2+ column, Superdex 75 SEC); not shown: His6, N-terminal, cleaved; SUMO, N-terminal, cleaved
# B2: S100A9 (calgranulin B) (natural protein)
# chain: TCKMSQLERNIETIINTFHQYSVKLGHPDTLNQGEFKELVRKDLQNFLKKENKNEKVIEHIMEDLDTNADKQLSFEEFIMLMARLTWASHEKMHEGDEGPGHHHKPGLGEGTP
# notes: S100A9 (calgranulin B); construct His6-SUMO-S100A9 in pET28a, tag removed by SENP1; also called S100A9 subunit of calprotectin (CP); source: E. coli BL21(DE3), purified (Ni2+ Sepharose, SENP1 cleavage of His6-SUMO, second Ni2+ column, Superdex 75 SEC); not shown: His6, N-terminal, cleaved; SUMO, N-terminal, cleaved
# What was measured:
# [1] = target: B2; experiment: SEC; Tricorn 10/300 column with Superdex 75 prep grade, 50 mM HEPES pH 7.4, 1 mM EDTA, 1 mM TCEP, no calcium; CP formed from an equimolar mix of S100A8 and S100A9 by acid denaturation (pH 2.0-2.5), stepwise dialysis and anion exchange; settings: both partners purified
# [2] = target: the molecule itself; experiment: dynamic light scattering; 100 uM S100A8, 100 uM S100A9, 50 uM CP; 50 mM HEPES pH 7.4; 8 °C; hydrodynamic radius compared with published radii of S100 dimers
binding result [1],Binder,binding result [2]
binds,B1,binds
–,B2,binds
